Data taken from patent US9879094B2, “Nucleic acid molecules encoding for BACE1 antibodies” (Genentech, Inc., priority 2010, dated 2018).

What was measured:
[1] = test system: 293-HEK cells stably expressing wild-type human amyloid precursor protein; test: Aβ1-40 production in 293-HEK cells expressing APP; type: cell-based
Method: To determine whether the observed in vitro inhibitory action of the anti-BACE1 antibodies on APP processing was also present in a cellular context, […]. The ability of the antibodies to inhibit Aβ1-40 production in 293-HEK cells stably expressing wild-type human amyloid precursor protein was assessed as follows. 293-APP^WT cells were seeded overnight at a density of 3×10^4 cells/well in a 96-well plate. […] of fresh media (DMEM+10% FBS) containing an anti-BACE1 antibody or a control IgG1 antibody was incubated with the cells for 24 hours at 37° C. A tricyclic small molecule BACE1 inhibitor (BACE1 SMI) was also used as a control ((Compound 8e—Charrier, N. et al. J. Med. Chem. 51:3313-3317 (2008)). The cellular media was harvested and assayed for the presence of Aβ1-40 using a Aβ1-40 HTRF® assay (CisBio) according to the manufacturer's instructions. Aβ1-40 values were normalized for cell viability, as determined using the CellTiter-Glo Luminescent Cell Viability Assay (Promega). Experiments were performed at least three times, and each point in each experiment was repeated in duplicate. Data was plotted using a four-parameter non-linear regression curve-fitting program (Kaleidagraph, Synergy Software).

Guinea pig BACE1 = Guinea pig BACE1 (Cavia porcellus, UniProt Q1KLR6); test: BIAcore SPR binding kinetics, guinea pig BACE1; conditions: guinea pig BACE1, pH 7.0
[2] = test system: Aβ1-40 and Aβ1-42 in hAPP transgenic mice; test: hAPP transgenic mice, continuous ICV infusion, Aβ levels; type: in vivo, mouse; conditions: ICV infusion 7 days
Method: Similar experiments were also performed in which YW412.8.31 anti-BACE1 antibody was delivered systemically or directly into hAPP transgenic mice brains by continuous ICV infusion. For ICV delivery, antibody was delivered continuously for 7 days via an Alzet osmotic minipump (model 2001) implanted unilaterally. The amount of YW412.8.31 antibody delivered was 0.041 mg/day (low dose) or 0.41 mg/day (high dose); 0.33 mg/day Control IgG was delivered to the control group. At euthanasia, plasma, cortex, and hippocampus were harvested and analyzed for levels of soluble Aβ1-40 and Aβ1-42 by ELISA (The Genetics Company) following manufacturer's instructions.

[3] = test system: Aβ1-40 and Aβ1-42 in hAPP transgenic mice; test: hAPP transgenic mice, systemic (IP) dosing, Aβ levels; type: in vivo, mouse; conditions: 100 mg/kg IP, 3 doses Q4D
Method: Briefly, 5-month old human APP-expressing mice were treated with 30 mg/kg or 100 mg/kg YW412.8.31 antibody or vehicle by intra-peritoneal injection every four days for a total of three doses (i.e., at days 1, 5, and 9). Animals were euthanized two hours post the final dose. Serum, plasma, and brains were harvested and processed. Plasma, cortex and hippocampus were analyzed for levels of soluble Aβ1-40 and Aβ1-42 using an Amyloid beta (Aβ) ELISA test kit per manufacture's instructions (The Genetics Company). Pharmacokinetic analysis was performed on serum and brain homogenates.

Cathepsin D = molecular target: T1, Cathepsin D (Homo sapiens, UniProt P07339); test: MCE assay, cathepsin D; type: biochemical
T1 construct: the extracellular domain of Cathepsin D (6 nM, Calbiochem®); purchased Calbiochem
Method: The MCE assay reactions were carried out in a final volume of 20 μL per well in a 384-well microplate. A standard enzymatic reaction, initiated by the addition of 10 μL 2× substrate to 5 μL of 4× enzyme and […] of 4× compound, containing 12 nM human BACE1 extracellular domain, […] amyloid precursor protein beta secretase active site peptide (FAM-[…]-CONH2 (SEQ ID NO:55)), 50 mM NaOAc pH 4.4 and 0.1% CHAPS. The same reaction conditions were used for the extracellular domain of human BACE2 enzyme (5 nM) and the extracellular domain of Cathepsin D (6 nM, Calbiochem®). After incubation for 60 minutes at ambient temperature, the product and substrate in each reaction were separated using a 12-sipper microfluidic chip analyzed on an LC3000® (both, Caliper Life Sciences). The separation of product and substrate was optimized by choosing voltages and pressure using the manufacturer's optimization software. The separate buffer contained 100 mM HEPES pH 7.2, 0.015% Brij-35, 0.1% coating reagent #3, 10 mM EDTA and 5% DMSO. The separation conditions used a downstream voltage of −500V, an upstream voltage of −2250V and a screening pressure of −1.2 psi. The product and substrate fluorescence was excited at a wavelength of 488 nm and detected at a wavelength of 530 nm. Substrate conversion was calculated from the electropherogram using HTS Well Analyzer software (Caliper Life Sciences).

Guinea pig BACE1, sequence (Q1KLR6 46-473): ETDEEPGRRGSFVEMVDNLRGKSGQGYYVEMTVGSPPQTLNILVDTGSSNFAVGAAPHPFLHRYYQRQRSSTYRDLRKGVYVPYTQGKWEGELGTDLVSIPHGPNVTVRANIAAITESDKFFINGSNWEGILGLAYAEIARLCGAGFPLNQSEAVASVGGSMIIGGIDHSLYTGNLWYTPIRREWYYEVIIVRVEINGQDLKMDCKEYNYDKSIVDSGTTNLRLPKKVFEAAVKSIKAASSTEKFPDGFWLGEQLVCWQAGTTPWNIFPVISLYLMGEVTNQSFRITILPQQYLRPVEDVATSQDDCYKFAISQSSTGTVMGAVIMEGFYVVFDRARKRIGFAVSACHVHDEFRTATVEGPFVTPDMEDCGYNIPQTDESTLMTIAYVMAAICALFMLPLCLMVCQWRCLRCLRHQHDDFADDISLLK
T1 sequence (P07339 65-412, species assumed): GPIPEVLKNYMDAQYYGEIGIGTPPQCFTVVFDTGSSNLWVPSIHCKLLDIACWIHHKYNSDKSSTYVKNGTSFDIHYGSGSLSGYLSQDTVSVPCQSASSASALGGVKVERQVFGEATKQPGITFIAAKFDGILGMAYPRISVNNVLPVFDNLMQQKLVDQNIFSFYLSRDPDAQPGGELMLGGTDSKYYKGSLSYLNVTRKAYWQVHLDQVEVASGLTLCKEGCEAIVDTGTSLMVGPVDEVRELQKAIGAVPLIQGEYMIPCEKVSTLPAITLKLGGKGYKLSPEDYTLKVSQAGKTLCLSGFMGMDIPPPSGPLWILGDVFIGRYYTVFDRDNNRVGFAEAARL

B1: YW412.8.31: affinity matured form of YW412.8 anti-BACE1 antibody (antibody, V domains shown)
VH: EVQLVESGGGLVQPGGSLRLSCAASGFTFLGYGIHWVRQAPGKGLEWVGWISPAGGSTDYADSVKGRFTISADTSKNTAYLQMNSLRAEDTAVYYCARGPFSPWVMDYWGQGTLVTVSS
VL: DIQMTQSPSSLSASVGDRVTITCRASQDVSTAVAWYQQKPGKAPKLLIYSASFLYSGVPSRFSGSGSGTDFTLTISSLQPEDFATYYCQQFPTYLPTFGQGTKVEIK
[1]; 24 hours, compared to non-BACE1 IgG (Xolair)
  inhibition of Aβ1-40 production: inhibited
[1]; APP-expressing 293 cells
  maximum reduction of Aβ1-40 production: ~90%
Guinea pig BACE1
  KOFF: 2.7 × 10^−4 S^−1
  KON: 1.0 × 10^5 M^−1S^−1
[2]
  Aβ reduction following ICV infusion: 15-23%
[2]; both doses
  reduction of Aβ1-40 and Aβ1-42 in cortex: 15-23%
  reduction of Aβ1-40 and Aβ1-42 in hippocampus: 15-20%
[3]
  reduction of Aβ1-40 and Aβ1-42 in the brain: 15-22%
  reduction of cortical Aβ1-40 and Aβ1-42 (trend): 12-18%
  reduction of hippocampal Aβ1-40 and Aβ1-42: 13-22%
Cathepsin D
  inhibition of cathepsin D: did not inhibit
